Measured values from patent US20150025225A1 (SHIONOGI, published 2015).
Where two headings read alike, the source gives them in different places.

T1: human EL-411-459 fragment (human)
T1 construct: Used as HEK293 lysate
T1 chain: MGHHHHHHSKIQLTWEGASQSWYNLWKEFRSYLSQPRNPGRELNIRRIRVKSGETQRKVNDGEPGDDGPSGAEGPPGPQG

T2: rabbit EL-C2 tag (rabbit)
T2 chain: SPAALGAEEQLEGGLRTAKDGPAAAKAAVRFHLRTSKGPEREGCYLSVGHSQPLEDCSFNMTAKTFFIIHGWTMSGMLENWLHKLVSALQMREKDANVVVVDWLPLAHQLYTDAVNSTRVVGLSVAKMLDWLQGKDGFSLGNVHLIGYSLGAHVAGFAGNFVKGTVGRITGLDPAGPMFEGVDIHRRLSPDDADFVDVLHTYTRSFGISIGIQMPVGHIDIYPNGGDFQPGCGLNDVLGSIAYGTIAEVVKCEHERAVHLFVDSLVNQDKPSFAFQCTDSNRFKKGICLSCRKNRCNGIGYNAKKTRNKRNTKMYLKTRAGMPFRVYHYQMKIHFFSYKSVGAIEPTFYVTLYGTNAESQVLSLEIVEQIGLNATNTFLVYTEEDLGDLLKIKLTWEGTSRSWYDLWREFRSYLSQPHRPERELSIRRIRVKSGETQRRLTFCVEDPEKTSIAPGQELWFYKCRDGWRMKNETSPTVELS

T3: human EL[331-459]-mouse EL-C2 tag (human/mouse chimera, UniProt Q9WVG5 21-500 (mouse entry))
T3 chain: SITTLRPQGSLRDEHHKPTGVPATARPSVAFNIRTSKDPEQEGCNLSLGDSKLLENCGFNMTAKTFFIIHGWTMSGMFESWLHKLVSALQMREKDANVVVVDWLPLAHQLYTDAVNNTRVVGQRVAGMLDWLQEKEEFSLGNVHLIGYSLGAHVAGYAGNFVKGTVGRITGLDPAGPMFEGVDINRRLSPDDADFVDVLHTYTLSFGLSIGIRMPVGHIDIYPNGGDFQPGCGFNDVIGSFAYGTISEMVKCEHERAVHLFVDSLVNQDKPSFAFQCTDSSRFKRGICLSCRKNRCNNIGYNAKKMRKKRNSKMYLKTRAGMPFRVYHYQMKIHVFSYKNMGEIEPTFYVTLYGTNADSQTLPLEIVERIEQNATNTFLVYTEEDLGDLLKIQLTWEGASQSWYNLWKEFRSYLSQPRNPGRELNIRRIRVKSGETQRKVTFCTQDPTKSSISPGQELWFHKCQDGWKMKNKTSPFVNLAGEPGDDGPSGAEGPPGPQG

T4: Baboon EL-C2 tag (baboon, UniProt Q9Y5X9 21-500 (human entry), limits assumed)
T4 chain: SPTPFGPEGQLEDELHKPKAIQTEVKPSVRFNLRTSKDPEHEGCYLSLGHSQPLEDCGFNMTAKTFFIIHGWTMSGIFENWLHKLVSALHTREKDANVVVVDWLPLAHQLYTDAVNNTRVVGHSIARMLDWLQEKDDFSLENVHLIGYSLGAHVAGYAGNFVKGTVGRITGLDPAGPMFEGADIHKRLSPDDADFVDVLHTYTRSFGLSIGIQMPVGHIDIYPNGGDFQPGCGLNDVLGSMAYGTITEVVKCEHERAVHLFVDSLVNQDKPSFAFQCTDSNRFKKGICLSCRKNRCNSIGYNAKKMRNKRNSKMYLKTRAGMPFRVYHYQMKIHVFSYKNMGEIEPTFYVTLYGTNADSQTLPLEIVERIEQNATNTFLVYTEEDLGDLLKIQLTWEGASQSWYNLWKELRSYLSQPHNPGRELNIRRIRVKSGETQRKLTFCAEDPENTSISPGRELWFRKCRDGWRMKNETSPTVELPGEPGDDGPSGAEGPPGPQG

T5: cynomolgus monkey EL-C2 tag (cynomolgus monkey, UniProt Q9Y5X9 21-500 (human entry), limits assumed)
T5 chain: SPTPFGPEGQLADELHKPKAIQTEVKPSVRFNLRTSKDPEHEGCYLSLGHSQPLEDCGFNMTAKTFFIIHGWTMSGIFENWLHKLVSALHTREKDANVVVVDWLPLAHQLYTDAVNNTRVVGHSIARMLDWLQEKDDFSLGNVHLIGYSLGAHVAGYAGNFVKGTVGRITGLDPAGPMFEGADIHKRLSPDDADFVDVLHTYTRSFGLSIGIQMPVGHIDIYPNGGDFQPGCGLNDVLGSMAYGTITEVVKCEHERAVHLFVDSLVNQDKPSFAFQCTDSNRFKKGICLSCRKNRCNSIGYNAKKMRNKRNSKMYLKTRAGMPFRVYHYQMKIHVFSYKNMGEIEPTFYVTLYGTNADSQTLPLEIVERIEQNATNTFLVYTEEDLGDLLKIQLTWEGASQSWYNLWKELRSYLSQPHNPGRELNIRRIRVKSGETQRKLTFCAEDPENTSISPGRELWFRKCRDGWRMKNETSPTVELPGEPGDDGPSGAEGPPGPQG


How the values were obtained:
[1] = target: T1, human EL-411-459 fragment; experiment: sandwich ELISA with human EL fragment lysate, as Example 10
[2] = target: T2, rabbit EL-C2 tag; experiment: cell-based or functional assay
[3] = target: T3, human EL[331-459]-mouse EL-C2 tag; experiment: cell-based or functional assay
[4] = target: T4, Baboon EL-C2 tag; experiment: cell-based or functional assay
[5] = target: T5, cynomolgus monkey EL-C2 tag; experiment: cell-based or functional assay
[6] = target: T4, Baboon EL-C2 tag; experiment: Biacore SPR; EL heparin extract captured by anti-C2-tag antibody on CM5, antibody as analyte, bivalent fit
Description: (§1) The binding affinities of anti-EL antibodies were measured using Biacore. Anti-C2-tag antibody was immobilized on a sensor chip CM5 (GE HealthCare) using amine-coupling and baboon EL heparin extract or cynomolgus monkey heparin extract diluted with HBS-P (GE Healthcare) was added and EL were captured on the sensor chip. Then anti-EL antibodies diluted with HBS-P were added and the binding affinities were calculated by bivalent fitting of BIAevaluation software (FIG. 9A-G).

[7] = target: T5, cynomolgus monkey EL-C2 tag; experiment: as above
Description: as §1

[8] = target: T2, rabbit EL-C2 tag; experiment: ELISA-type titration, A450 against antibody concentration; protocol not described in the text
[9] = target: T3, human EL[331-459]-mouse EL-C2 tag; experiment: as above
[10] = target: T4, Baboon EL-C2 tag; experiment: as above
[11] = target: T5, cynomolgus monkey EL-C2 tag; experiment: as above
[12] = target: T4, Baboon EL-C2 tag; experiment: Biacore SPR; EL captured by anti-C2-tag antibody, antibody as analyte, bivalent fit; column head prints nM, kd/ka gives M
Description: as §1

[13] = target: T5, cynomolgus monkey EL-C2 tag; experiment: as above
Description: as §1

[14] = target: T2, rabbit EL-C2 tag; experiment: ELISA-type titration, A450 against antibody concentration; protocol not described in the text
[15] = target: T5, cynomolgus monkey EL-C2 tag; experiment: as above
[16] = target: T2, rabbit EL-C2 tag; experiment: as above
[17] = target: T3, human EL[331-459]-mouse EL-C2 tag; experiment: as above
[18] = target: T4, Baboon EL-C2 tag; experiment: as above
[19] = target: T5, cynomolgus monkey EL-C2 tag; experiment: as above
[20] = target: T2, rabbit EL-C2 tag; experiment: as above
[21] = target: T4, Baboon EL-C2 tag; experiment: as above
[22] = target: T5, cynomolgus monkey EL-C2 tag; experiment: as above

Binder	binding result [1]	Neutralizing activity_IC50 [2] [nM]	Neutralizing activity_IC50 [3] [nM]	Neutralizing activity_IC50 [4] [nM]	Neutralizing activity_IC50 [5] [nM]	koff [6] [s⁻¹]	kon [6] [M⁻¹ s⁻¹]	koff [7] [s⁻¹]	kon [7] [M⁻¹ s⁻¹]	Kd [12] [nM]	Kd [13] [nM]	further results
25E4 antibody (antibody, IgG2b, V domains shown) VH: QVALKESGPGILQPSQTLSLTCSFSGFSLSTSGMGVGWIRQPSGKGLEWLAHIWWHGNKYYSTALKSRLTISKDTSNNQVFLKIASVDTADTATYYCARISDGYPLDYWGQGTSVTVSS VL: DIQMTQSPSSLSASLGGKVTITCKASQDINKYIVWYQQKPGKGPRLLIHYTSTLQPGFPSRFSGSGSGRDYSLSITNLEPEDIATYYCLQYDNLLWTFGGGTKLEIK	no binding	85	6.9	5.7	4.2	0.00016	250000	9.4e-05	160000	0.64	0.59	EC50 (read off the curve) [8]: ~0.01 µg/mL; EC50 (read off the curve) [9]: ~0.02 µg/mL; EC50 (read off the curve) [10]: ~0.02 µg/mL; EC50 (read off the curve) [11]: ~0.007 µg/mL
16A11 antibody (antibody, IgG1, V domains shown) VH: QVTLKESGPGILQPSQTLSLTCSFSGFSLSTSGMGVGWVRQPSGKGLEWLAHIWWNDYYYYKTALKSRLTISKDTSNNQVFLKIASVDTVDTATYYCARMAPGTPFPSWGQGTLVTVSA VL: DIQMTQSPSSLSASLGGKVTITCKASQDINRYIAWYQHKPGKGPRLLIHYTSTLQPGIPSRFSGSGSGRDYSFSISNLEPEDIATYYCLQYDILLWTFGGGTKLEIK	binds	69	6.1	6.2	6.2	0.00012	120000	0.00039	140000	1	2.8	EC50 (read off the curve) [14]: ~0.04 µg/mL; EC50 (read off the curve) [15]: ~0.02 µg/mL
3B1 antibody (antibody, IgG1, V domains shown) VH: QVTLKESGPGILQPSQTLSLTCSFSGFSLSTSGVGVGWIRQPSGKGLEWLAHIWWNDNKYYNTALKSRLTISKDTSNNQVFLKIASVDTADTATYFCARSYDGYPFDYWGQGTLVTVSA VL: DIQMTQSPSSLSASLGGKVTITCKASQDINKYIVWYQHKPGKGPRLLIHHTSTLQPGIPSRFSESGSGRDYSFSISNLEPEDIASYYCLQYDTLLWTFGGGTKLEIR	binds	207	18	6.6	6.2	0.00014	93000	9.9e-05	180000	1.5	0.55	EC50 (read off the curve) [16]: ~0.02 µg/mL; EC50 (read off the curve) [17]: ~0.03 µg/mL; EC50 (read off the curve) [18]: ~0.02 µg/mL; EC50 (read off the curve) [19]: ~0.006 µg/mL
8F5 antibody (antibody, IgG2a, V domains shown) VH: QVTLKESGPGILQPSQTLSLTCSFSGFSLSTSNMGVGWIRQPSGKGLEWLAHIWWNDYKYYNTALKSRLTISKDTSNNQVFLKIASLDTADTATYYCARIGGGTPLDYWGQGTSLTVSS VL: DIQMAQSPSSLSASLGGKVTITCKASQDIHTYIAWYQHKPGKGPRLLMLYTSTLQPGIPSRFSGSGSGRDYSFSISNLEPEDIATYYCLQYDDLLWTFGGGTKLEIK	–	98	–	4.8	3	0.00021	140000	0.00014	140000	~1.5	1	EC50 (read off the curve) [20]: ~0.01 µg/mL; EC50 (read off the curve) [21]: ~0.01 µg/mL; EC50 (read off the curve) [22]: ~0.005 µg/mL
